{"source": "patent US9267116B2", "about": "“Amino acid dehydrogenase, and process for producing L-amino acid, 2-oxo acid or D-amino acid” (KANEKA CORPORATION, priority 2008, dated 2016)", "assay": "Properties of the purified amino acid dehydrogenase (specific activity, action temperature and pH), NADH decline at 340 nm", "assay_type": "biochemical, Rhodococcus qingshengii strain KNK2108", "conditions": "30° C., pH 9.0, phenylpyruvic acid substrate; 1 unit = 1 μmol NADH consumed in 1 minute", "method": "In the embodiments, the amino acid dehydrogenase activity of the polypeptide can be measured, for example, based on the rate of decline in the absorbance at a wavelength of 340 nm when 1.2 mL of 0.5 M NH3/NH4Cl buffer (pH 9.0), 0.2 mL of 0.1 M sodium carbonate buffer (pH 9.0) containing 3 mM NADH coenzyme, and 0.1 mL of an appropriately diluted enzyme solution are added to 1.5 mL of 0.1 M sodium carbonate buffer (pH 9.0) containing 10 mM phenylpyruvic acid as substrate and a reaction is run for 1 minute at 30° C. In the embodiments, the amino acid dehydrogenase activity was measured using this method unless indicated otherwise.\nThe activity of the amino acid dehydrogenase was measured based on the rate of decline in the absorbance at a wavelength of 340 nm when 1.2 mL of 0.5 M NH3/NH4Cl buffer (pH 9.0), 0.2 mL of 0.1 M sodium carbonate buffer (pH 9.0) that contained 3 mM NADH coenzyme, and 0.1 mL of the appropriately diluted enzyme solution were added to 1.5 mL of 0.1 M sodium carbonate buffer (pH 9.0) that contained 10 mM phenylpyruvic acid substrate and a reaction was carried out for 1 minute at 30° C. 1 unit is defined here as the quantity of enzyme that consumed 1 μmol NADH in 1 minute. The protein was quantified by the Bradford method using BSA as the reference protein.\nThe action temperature range and the optimal temperature were examined. […]", "data": [{"molecule": "purified amino acid dehydrogenase: amino acid dehydrogenase purified from Rhodococcus qingshengii strain KNK2108 (Example 1), SEQ ID NO:1, classified as phenylalanine dehydrogenase (protein, listed as Rhodococcus qingshengii) MSIDDELRWDGELTVTRHDRETGTTFVIRIDSTRLGPASGGTRAAHYPSIGHALADAGKLAGAMTLKMAVSDLPMGGGKSVIALPAPRNQIDAATWSRILGIHAENIDKLEGNYWTGPDVNTNSSDMDQLSRTTRYVFGRSVDKGGAGSSAHATALGVFEAMKATARRRGLGTLDGRTVLVQGLGAVGGDVVRLAAQAGARLLVADTDPQRLEAASLAGHTVVPAGEVLRTPCDLFAPCAMGGIIDFAAAASIPTLAVAGAANNILTDAAAGEVLRDRGVLCAPDFVANAGGAFHLVGREVLGWNEDYVVERTRGIGRTLDEVYSLSEERGITTEAAALMLARARLSPASTAAAATSAAPAAAAASPA", "values": [{"measurement": "specific activity", "result": 204, "unit": "units/mg protein"}]}]}
